In the experiment the target is T1, KSHV glycoprotein L (gL), residues 21-167 (Kaposi sarcoma-associated herpesvirus …, UniProt F5HDB7 21-167).
T1 construct: source: High Five cells (baculovirus), secreted with gH, purified (HisTrap, Resource S, Superdex 200)
In words: crystal structure; KSHV gHgL-LBD complex, mixed on ice 1 h and purified on Superdex 200 Increase; 3.2 Å. The settings on record: both partners purified.

This is an account of results in PMC7687889, “Molecular basis of EphA2 recognition by gHgL from gammaherpesviruses” (Nature Communications, 2020).

B1: KSHV glycoprotein H (gH), residues 22-698 (domain or fragment)
chain: ATGALPTTATTITRSATQLINGRTNLSIELEFNGTSFFLNWQNLLNVITEPALTELWTSAEVAEDLRVTLKKRQSLFFPNKTVVISGDGHRYTCEVPTSSQTYNITKGFNYSALPGHLGGFGINARLVLGDIFASKWSLFARDTPEYRVFYPMNVMAVKFSISIGNNESGVALYGVVSEDFVVVTLHNRSKEANETASHLLFGLPDSLPSLKGHATYDELTFARNAKYALVAILPKDSYQTLLTENYTRIFLNMTESTPLEFTRTIQTRIVSIEARRACAAQEAAPDIFLVLFQMLVAHFLVARGIAEHRFVEVDCVCRQYAELYFLRRISRLCMPTFTTVGYNHTTLGAVAATQIARVSATKLASLPRSSQETVLAMVQLGARDGAVPSSILEGIAMVVEHMYTAYTYVYTLGDTERKLMLDIHTVLTDSCPPKDSGVSEKLLRTYLMFTSMCTNIELGEMIARFSKPDSLNIYRAFSPCFLGLRYDLHPAKLRAEAPQSSALTRTAVARGTSGFAELLHALHLDSLNLIPAINCSKITADKIIATVPLPHVTYIISSEALSNAVVYEVSEIFLKSAMFISAIKPDCSGFNFSQIDRHIPIVYNISTPRRGCPLCDSVIMSYDESDGLQSLMYVTNERVQTNLFLDKSPFFDNNNLHIHYLWLRDNGTVVEIRGMY
notes: also called KSHV gH; source: High Five cells (baculovirus), secreted with gL, purified (HisTrap, Resource S, Superdex 200)
Consider B1, for which the binding result is “binds”.
